In paper PMC9114370 (2022):

Biological target: T1, TDP-43_(1–102) (human, UniProt Q13148 1-102, fluorescently labelled for MST)
T1 chain: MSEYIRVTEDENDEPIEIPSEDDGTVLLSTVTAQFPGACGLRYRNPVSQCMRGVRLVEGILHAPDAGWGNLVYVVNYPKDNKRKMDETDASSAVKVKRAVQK
Assay: MST

Kd: 1440 nM
B1: HspA5 substrate binding domain (SBD) (domain or fragment)
chain: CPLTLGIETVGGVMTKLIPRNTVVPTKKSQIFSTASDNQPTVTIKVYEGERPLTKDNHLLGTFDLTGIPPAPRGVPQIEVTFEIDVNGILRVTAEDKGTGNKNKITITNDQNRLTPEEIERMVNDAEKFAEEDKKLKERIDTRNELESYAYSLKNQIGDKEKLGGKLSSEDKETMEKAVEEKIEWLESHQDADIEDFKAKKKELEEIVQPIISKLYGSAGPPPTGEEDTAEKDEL
